Earlier results on 1 substance are cited in article PMC10953113 (Biomedicine & pharmacotherapy = Biomedecine & …, 2024).

The conditions of the series: no reference given.

For the substance Arginine vasopressin [AVP], the “half-life (T1/2)” value is reported as ~ 10 min.
